Results taken from US11702475B2, “Cysteine engineered fibronectin type III domain binding molecules” (Janssen Biotech, Inc., priority 2013, dated 2023).

How the values were obtained:
[1] = system: EGFR-overexpressing human tumor cell line H1573; assay: Cytotoxicity assay in H1573 cells; format: cell-based; conditions: for potency relative to the parent conjugate (in words): VC-MMAF conjugates; for IC50: cysteine variants conjugated to VC-MMAF, Cell TiterGlo at 70 hours, read-out: IC50
Protocol: Cell killing was assessed by measuring viability of the EGFR-overexpressing human tumor cell line H1573 following exposure to the cysteine variant-cytotoxin conjugates. Cells were plated in black-well, clear bottomed, tissue culture-treated plates (Falcon 353219) at 7000/well in 100 μL/well of phenol red free RPMI media (Gibco 11835-030) with 5% fetal bovine serum (Gibco). Cells were allowed to attach overnight at 37° C. in a humidified 5% CO2 atmosphere. Medium was aspirated from 96-well plate and cells were treated with 50 uL of fresh media and 50 uL of 2× inhibitor made up in fresh media. Cell viability was determined by an endpoint assay with Cell TiterGlo (Promega) at 70 hours. IC50 values were determined by fitting data to the equation for a sigmoidal dose response with variable slope using GraphPad Prism 5 (GraphPad Software). Table 11 reports IC50 values obtained from analysis of the CellTiter Glo data.
Conjugates consisting of ECB147 cysteine variants, 83v2-cys, or Tencon-cys linked to a cytotoxic tubulin inhibitor from the auristatin family (FIG. 2) were tested for target-dependent cytotoxicity in cancer cells. The inhibitor was linked to the cysteine-containing protein via a non-cleavable PEG4 linker or an enzyme-cleavable valine-citrulline or valine-lysine linker. Cell killing was assessed by measuring viability of the EGFR-overexpressing human tumor cell lines H1573 and A431 as well as the EGFR-negative tumor cell line MDA-MB-435 following exposure to the protein-cytotoxin conjugates using the procedure described in Example 4.

[2] = Analytical size exclusion chromatography (percent monomer); format: physicochemical; conditions: NEM-conjugated cysteine variants; SEC, Abs280 monomer region 5.5-6 minutes vs oligomer region 4-5.3 minutes
Protocol: Size exclusion chromatography was used to determine the aggregation state of the FN3 domains binding EGFR. Aliquots (10 μL) of each purified FN3 domain were injected onto a Superdex 75 5/150 column (GE Healthcare) at a flow rate of 0.3 mL/min in a mobile phase of PBS pH 7.4. Elution from the column was monitored by absorbance at 280 nm.
The percent monomer for each protein was determined by integrating the Abs280 signal and comparing the peak in the monomer region (5.5-6 minutes) to the peaks in the oligomer region (4-5.3 minutes).

[3] = Thermal stability of cysteine-NEM conjugates by DSC; format: physicochemical; conditions: for First Scan Tm: DSC 25-100 °C, 1 °C per minute; for Second Scan Tm: second identical scan
Protocol: The thermal stability of cysteine-NEM conjugates was assessed by differential scanning calorimetry (DSC). The only the conjugates tested were those determined to express at high levels, conjugate efficiently, and retain EGFR binding. Additionally, cysteine variants within the BC and FG loops were excluded. Stability data was generated by heating a 400 μL aliquot of the variant from 25° C. to 100° C. at a scan rate of 1° C. per minute in a VP-DSC instrument (MicroCal). A second identical scan was completed on the sample in order to assess the reversibility of thermal folding/unfolding. Data was fitted to a 2-state unfolding model in order to calculate the melting temperature (Table 10).

B1: N6C: cysteine variant of P54AR4-83v2 (printed SEQ ID NOS: 210 and 248); NEM and VC-MMAF conjugates (conjugate)
chain: MLPAPKCLVVSEVTEDSARLSWDDPWAFYESFLIQYQESEKVGEAIVLTVPGSERSYDLTGLKPGTEYTVSIYGVHNVYKDTNMRGLPLSAIFTT
modifications: NEM or vcMMAF conjugate; EGFR binding FN3 domain
notes: NEM and VC-MMAF conjugates
Q: Which “potency relative to the parent conjugate (in words)” value [1] does the source give for B1 here?
A: over two times more potent than the parent

Q: What about the IC50 [1] of the same molecule?
A: 0.16 nM

Q: What about the Percent monomer [2] of the same molecule?
A: 94%

Q: What about the “First Scan Tm” value [3] of the same molecule?
A: 71 °C

Q: And the “Second Scan Tm” value [3]?
A: 70 °C

B2: D15C: cysteine variant of P54AR4-83v2 (SEQ ID NOS: 193 and 231); NEM and VC-MMAF conjugates (conjugate)
chain: MLPAPKNLVVSEVTECSARLSWDDPWAFYESFLIQYQESEKVGEAIVLTVPGSERSYDLTGLKPGTEYTVSIYGVHNVYKDTNMRGLPLSAIFTT
modifications: NEM or vcMMAF conjugate; EGFR binding FN3 domain
notes: NEM and VC-MMAF conjugates
Q: What does the source list for B2?
A: IC50 [1]: 0.33 nM; Percent monomer [2]: 97%; First Scan Tm [3]: 73 °C; Second Scan Tm [3]: 73 °C

B3: T93C: cysteine variant of P54AR4-83v2 (SEQ ID NOS: 216 and 254); NEM and VC-MMAF conjugates (conjugate)
chain: MLPAPKNLVVSEVTEDSARLSWDDPWAFYESFLIQYQESEKVGEAIVLTVPGSERSYDLTGLKPGTEYTVSIYGVHNVYKDTNMRGLPLSAIFCT
modifications: NEM or vcMMAF conjugate; EGFR binding FN3 domain
notes: NEM and VC-MMAF conjugates
Q: Which “potency relative to the parent conjugate (in words)” value [1] does the source give for B3 here?
A: over two times more potent than the parent

Q: What about the IC50 [1] of the same molecule?
A: 0.2 nM

Q: What about the Percent monomer [2] of the same molecule?
A: 100%

Q: And the “First Scan Tm” value [3]?
A: 69 °C

Q: And the “Second Scan Tm” value [3]?
A: 69 °C

B4: Q34C: cysteine variant of P54AR4-83v2 (SEQ ID NOS: 197 and 235); NEM and VC-MMAF conjugates (conjugate)
chain: MLPAPKNLVVSEVTEDSARLSWDDPWAFYESFLICYQESEKVGEAIVLTVPGSERSYDLTGLKPGTEYTVSIYGVHNVYKDTNMRGLPLSAIFTT
modifications: NEM or vcMMAF conjugate; EGFR binding FN3 domain
notes: NEM and VC-MMAF conjugates
Q: For B4, which IC50 [1] is on record?
A: 0.74 nM

Q: What about the Percent monomer [2] of the same molecule?
A: 97%

Q: And the “First Scan Tm” value [3]?
A: 75 °C

Q: What about the “Second Scan Tm” value [3] of the same molecule?
A: 74 °C

B5: S20C: cysteine variant of P54AR4-83v2 (SEQ ID NOS: 195 and 233); NEM and VC-MMAF conjugates (conjugate)
chain: MLPAPKNLVVSEVTEDSARLCWDDPWAFYESFLIQYQESEKVGEAIVLTVPGSERSYDLTGLKPGTEYTVSIYGVHNVYKDTNMRGLPLSAIFTT
modifications: NEM or vcMMAF conjugate; EGFR binding FN3 domain
notes: NEM and VC-MMAF conjugates
Q: For B5, which IC50 [1] is on record?
A: 0.36 nM

Q: And the Percent monomer [2]?
A: 94%

Q: And the “First Scan Tm” value [3]?
A: 70 °C

Q: What about the “Second Scan Tm” value [3] of the same molecule?
A: 70 °C

B6: E14C: cysteine variant of P54AR4-83v2 (SEQ ID NOS: 192 and 230); NEM and VC-MMAF conjugates (conjugate)
chain: MLPAPKNLVVSEVTCDSARLSWDDPWAFYESFLIQYQESEKVGEAIVLTVPGSERSYDLTGLKPGTEYTVSIYGVHNVYKDTNMRGLPLSAIFTT
modifications: NEM or vcMMAF conjugate; EGFR binding FN3 domain
notes: NEM and VC-MMAF conjugates
Q: With B6 as the molecule, how does the IC50 [1] read?
A: 0.34 nM

Q: What about the Percent monomer [2] of the same molecule?
A: 96%

Q: And the “First Scan Tm” value [3]?
A: 70 °C

Q: What about the “Second Scan Tm” value [3] of the same molecule?
A: 71 °C

B7: S38C: cysteine variant of P54AR4-83v2 (SEQ ID NOS: 198 and 236); NEM and VC-MMAF conjugates (conjugate)
chain: MLPAPKNLVVSEVTEDSARLSWDDPWAFYESFLIQYQECEKVGEAIVLTVPGSERSYDLTGLKPGTEYTVSIYGVHNVYKDTNMRGLPLSAIFTT
modifications: NEM or vcMMAF conjugate; EGFR binding FN3 domain
notes: NEM and VC-MMAF conjugates
Q: Which results are given for B7?
A: IC50 [1]: 0.76 nM; Percent monomer [2]: 93%; First Scan Tm [3]: 65 °C; Second Scan Tm [3]: 65 °C

B8: S30C: cysteine variant of P54AR4-83v2 (SEQ ID NOS: 196 and 234); NEM and VC-MMAF conjugates (conjugate)
chain: MLPAPKNLVVSEVTEDSARLSWDDPWAFYECFLIQYQESEKVGEAIVLTVPGSERSYDLTGLKPGTEYTVSIYGVHNVYKDTNMRGLPLSAIFTT
modifications: NEM or vcMMAF conjugate; EGFR binding FN3 domain
notes: NEM and VC-MMAF conjugates
Q: With B8 as the molecule, how does the IC50 [1] read?
A: 0.78 nM

Q: And the Percent monomer [2]?
A: 94%

Q: And the “First Scan Tm” value [3]?
A: 71 °C

Q: And the “Second Scan Tm” value [3]?
A: 71 °C

B9: S16C: cysteine variant of P54AR4-83v2 (SEQ ID NOS: 194 and 232); NEM and VC-MMAF conjugates (conjugate)
chain: MLPAPKNLVVSEVTEDCARLSWDDPWAFYESFLIQYQESEKVGEAIVLTVPGSERSYDLTGLKPGTEYTVSIYGVHNVYKDTNMRGLPLSAIFTT
modifications: NEM or vcMMAF conjugate; EGFR binding FN3 domain
notes: NEM and VC-MMAF conjugates
Q: For B9, which IC50 [1] is on record?
A: 0.75 nM

Q: And the Percent monomer [2]?
A: 75%

Q: And the “First Scan Tm” value [3]?
A: 68 °C

Q: And the “Second Scan Tm” value [3]?
A: 68 °C

B10: S10C: cysteine variant of P54AR4-83v2 (SEQ ID NOS: 190 and 228); NEM and VC-MMAF conjugates (conjugate)
chain: MLPAPKNLVVCEVTEDSARLSWDDPWAFYESFLIQYQESEKVGEAIVLTVPGSERSYDLTGLKPGTEYTVSIYGVHNVYKDTNMRGLPLSAIFTT
modifications: NEM or vcMMAF conjugate; EGFR binding FN3 domain
notes: NEM and VC-MMAF conjugates
Q: Which IC50 [1] does the source give for B10 here?
A: 0.43 nM

Q: What about the Percent monomer [2] of the same molecule?
A: 80%

Q: What about the “First Scan Tm” value [3] of the same molecule?
A: 68 °C

Q: What about the “Second Scan Tm” value [3] of the same molecule?
A: 68 °C

B11: E53C: cysteine variant of P54AR4-83v2 (SEQ ID NOS: 204 and 242); NEM and VC-MMAF conjugates (conjugate)
chain: MLPAPKNLVVSEVTEDSARLSWDDPWAFYESFLIQYQESEKVGEAIVLTVPGSCRSYDLTGLKPGTEYTVSIYGVHNVYKDTNMRGLPLSAIFTT
modifications: NEM or vcMMAF conjugate; EGFR binding FN3 domain
notes: NEM and VC-MMAF conjugates
Q: What does the source list for B11?
A: potency relative to the parent conjugate (in words) [1]: over two times more potent than the parent; IC50 [1]: 0.09 nM; Percent monomer [2]: 97%; First Scan Tm [3]: 76 °C; Second Scan Tm [3]: 75 °C

B12: V8C: cysteine variant of P54AR4-83v2 (SEQ ID NOS: 189 and 227); NEM and VC-MMAF conjugates (conjugate)
chain: MLPAPKNLCVSEVTEDSARLSWDDPWAFYESFLIQYQESEKVGEAIVLTVPGSERSYDLTGLKPGTEYTVSIYGVHNVYKDTNMRGLPLSAIFTT
modifications: NEM or vcMMAF conjugate; EGFR binding FN3 domain
notes: NEM and VC-MMAF conjugates
Q: For B12, which IC50 [1] is on record?
A: 0.35 nM

Q: And the Percent monomer [2]?
A: 91%

Q: And the “First Scan Tm” value [3]?
A: 69 °C

Q: What about the “Second Scan Tm” value [3] of the same molecule?
A: 69 °C

B13: E11C: cysteine variant of P54AR4-83v2 (SEQ ID NOS: 191 and 229); NEM and VC-MMAF conjugates (conjugate)
chain: MLPAPKNLVVSCVTEDSARLSWDDPWAFYESFLIQYQESEKVGEAIVLTVPGSERSYDLTGLKPGTEYTVSIYGVHNVYKDTNMRGLPLSAIFTT
modifications: NEM or vcMMAF conjugate; EGFR binding FN3 domain
notes: NEM and VC-MMAF conjugates
Q: What does the source list for B13?
A: IC50 [1]: 0.94 nM; Percent monomer [2]: 100%; First Scan Tm [3]: 71 °C; Second Scan Tm [3]: 72 °C

B14: L32C: cysteine variant of P54AR4-83v2; NEM and VC-MMAF conjugates (conjugate)
chain: LPAPKNLVVSEVTEDSARLSWDDPWAFYESFCIQYQESEKVGEAIVLTVPGSERSYDLTGLKPGTEYTVSIYGVHNVYKDTNMRGLPLSAIFTT
modifications: left off: small tags and cut ends
notes: cysteine variant of P54AR4-83v2; NEM and VC-MMAF conjugates
Q: Which IC50 [1] does the source give for B14 here?
A: 2.92 nM

Q: And the Percent monomer [2]?
A: 100%

Q: What about the “First Scan Tm” value [3] of the same molecule?
A: 71 °C

Q: And the “Second Scan Tm” value [3]?
A: 70 °C
